Changes are numbered by the printed parent chain. Like-named read-outs stand apart in the source and are kept apart here.
What was measured:
[1] = target: T1, Cys-HLA (Staphylococcus aureus)
[2] = target: T1, Cys-HLA; remark: listed apart in the source
[3] = target: T1, Cys-HLA; remark: listed apart in the source
[4] = target: T1, Cys-HLA; remark: listed apart in the source

B1: Bm28F09 (VHH)
VHH: QVQLVESGGGLVEPGGSLTLSCAASGFTSKNYYIGWFRQAPGKYREGVASIGASDGSLYIADSVKGRFTISSDNAKNTVYLHPRNLKPEDSGVYYCATGRDSWRWVPSAMDYWGKGIQVTVSS
Kd [1]: 0.15 nM

B2: Ma7B01 (VHH)
VHH: QVQLVESGGGLVQAGDSLSLSCAASGRTFSNYAMGWFRQAPGKERHFVAVINQIGDSTWYPDFAKGRFTISRDNAKNTLYLQMNSLKPEDTAVYYCAATDPRSYWRIWPHEYGYWGQGTQVTVSS
Kd [1]: 0.05 nM

B3: Ma7E01 (VHH)
VHH: B2 VHH with L11S, A23V, G26E, Q53P, D56E, S57E, P109E, Y112F, G113D
Kd [1]: ≤ 0.01 nM

B4: Ma8D07 (VHH)
VHH: QVQLVESGGGLVQPGGSLRLSCAASESIYKLNAMGWYRQAPGKELELVTTISSGGSTFYTDPVKGRFTISTDNAKNTVYLQMRSLKPEDTAMYYCAANPTYNHYSARGQGTQVTVSS
Kd [1]: 0.8 nM

B5: Ma8D08 (VHH)
VHH: B4 VHH with L11F, P14A
Kd [1]: 1 nM

B6: Bm28C09 (VHH)
VHH: QVQLVESGGSVVQAGGSLRLSCTASGRNFNSYAMGWFRRPPGEQRDFIAAIIRSTGKTTYADSDSVKGRFTISKDSSGNTVYLQMNNLKPEDTAIYYCAGGDAGPYAFGYDYWGQGTQVTVSS
Kd [1]: ≤ 0.01 nM
Kd [2]: 0.015 nM

B7: Bm28C04 (VHH)
VHH: QVQLVESGGGSVQPGNSLRLSCKVSGRTFNSYALGWFRRRPGDQRDFVASIIRSTGGTSYADSVKGRFTISYDNVQNTVDLQMNSLEPEDTAIYYCAGGDGHIYAFGYDYWGQGTQVTVSS
Kd [1]: ≤ 0.01 nM
Kd [3]: ~0.05 nM
Kd [2]: 0.04 nM

B8: Bm28H07 (VHH)
VHH: B7 VHH with N84S
Kd [1]: ≤ 0.01 nM

B9: Ma8E03 (VHH)
VHH: QVQLVESGGGLVHPGGSLRLSCAASGSSLDHYVIGWFRQVPGKEREGVSCISRSGGSTNYADSVKGRFTVSRDNVKNMVYLQMNSLEPEDSAEYYCAAQRNLGNFCVLGWLEYDDWGQGTQVTVSS
Kd [1]: ≤ 0.01 nM

B10: Ma8G02 (VHH)
VHH: B9 VHH with H13L, V40Y, L111V
Kd [1]: ≤ 0.01 nM

B11: Ma7F02 (VHH)
VHH: QVQLVESGGGLVQAGGSLRLSCTVSGSIDSLHTMGWFRQAPGKKRDFVAVVSWSGGNTYYPDYAKGRFTISRDNTKNTVYLQMNSLKPEDTAIYYCAAESGSGNYWKIWEHEFDSWGQGTQVTVSS
Kd [1]: 0.04 nM
Kd [3]: ~0.05 nM

B12: Bm28H01 (VHH)
VHH: QVQLVESGGGLVQPGGSLTLSCAASGFTLGDRTLGWFRQVAGKQREGVASIASGVLSAYIADSVKGRFTISRDDAKNTIYLHMNNLKPDDTGVYYCARGVDSWRWVPSTMDLWGKGILVTVSS
Kd [1]: ≤ 0.01 nM

B13: Ma7A07 (VHH)
VHH: QVQLVESGGGLVQPGGSLRLSCAASGFTLGDYTLGWFRQAPGKQREGVSSIASSALSIYIADSVKGRFTISRDDAKNTIYLHMNNLKPEDTGVYYCARGVDSWRWVPSAMDLWGKGTLVTVSS
Kd [1]: ≤ 0.01 nM
Kd [4]: 0.006 nM

B14: Ma7A08 (VHH)
VHH: B13 VHH with R19T, A55V, I58V
Kd [1]: ≤ 0.01 nM

B15: Ma7B03 (VHH)
VHH: B13 VHH with G30S, D31N, T33Y, L34V, A52G, A55D, D74N, E89D, V100T, L118Q
Kd [1]: ≤ 0.01 nM

B16: Ma7B12 (VHH)
VHH: B13 VHH with D74N, I79V, V100I, S102N, L118Q
Kd [1]: ≤ 0.01 nM

B17: Ma8A05 (VHH)
VHH: QVQLVESGGGLVQPGGSLRLSCAASPASGFTLDLYTIAWFLQAPGKEREGVSAISLSDEITYYSDAVKGRFTISRDSAKNTVFLQMDRLKPEDTGVYYCAIGAFDFILKEADADYWGQGTQVTVSS
Kd [1]: 0.6 nM

B18: Ma8D05 (VHH)
VHH: B17 VHH with A66T
Kd [1]: 1 nM

B19: Ma31B06 (VHH)
VHH: B17 VHH with E6Q, S17T
Kd [1]: 0.075 nM

B20: Ma31A12 (VHH)
VHH: B17 VHH with P26A, A111V
Kd [1]: 0.065 nM

B21: Ma7C02 (VHH)
VHH: QVQLVESGGGLVQAGGSLRLSCAASGRTFSDYAMGWFRQAAGKDRDFVAVITRSGDSTYYPDSTKGRFTISRDNAKNTMYLQMNSLKPEDTARYYCAATDPTNYWRIWEHEFDYWGQGTQVTVSS
Kd [1]: 0.09 nM

B22: Bm28A12 (VHH)
VHH: QVQLVESGGGLVQAGGSLRLSCVVSGRALSSYNLAWFRQSPGKEREWIATIMPSADKAHYPDFLEGRFTISGDNTENTLYLQMNSLKPEDTAIYYCAAREPSYYHALFEYEYNLWGQGTQVTVSS
Kd [1]: ≤ 0.01 nM
Kd [2]: 0.13 nM

B23: Ma7C11 (VHH)
VHH: QVQLVESGGGLVRAGGSLRLSCAASGSISSVNGMGWFRQAPGKERLFVAQVSLLDSSTYYADSVKGRFTISRDDAKNTMYLQMNNVRPEETAVYYCAATKLRIGTAFSSEYDYWGQGTQVTVSS
Kd [1]: 0.3 nM

B24: Ma8H03 (VHH)
VHH: QVQLVESGGGLVHPGGSLRLSCAASGSSLDHYVIGWFRQVPGKQREGISCISSGGSTNYADSVKGRFTVSRDNVKSTVYLQMNSLAPDDSAEYYCAAQRNLGNFCVLGWLEYDDWGQGTQVTVSS
Kd [1]: ≤ 0.01 nM
Kd [4]: ≤ 0.001 nM

B25: Ma7D06 (VHH)
VHH: QVQLVESGGGLVQAGGSLRLSCAASGSISGIDTMAWFRQIPGKDREFVAVIKWAAGSTWYPDFVKGRFTVSRDNAKNMVYLQMDSVKPEDTAIYYCAAAAGEKYYYRLFPYEYDYWGQGTQVTVSS
Kd [1]: 0.06 nM

Source: patent US20260226142A1 (MAX PLANCK GESELLSCHAFT ZUR F RDERUNG DER WISSENSCHAFTEN E V, published 2026)
